Here are results for one molecule from paper PMC2290040 (The Journal of Cell Biology, 1992).

Assay in all cases: co-IP
For experiment [1], the target named is T1, RHL-1 truncated at the carboxy terminus, product of 267 aa (rat, UniProt P02706 1-267, [35S]methionine label).
T1 sequence (looked up): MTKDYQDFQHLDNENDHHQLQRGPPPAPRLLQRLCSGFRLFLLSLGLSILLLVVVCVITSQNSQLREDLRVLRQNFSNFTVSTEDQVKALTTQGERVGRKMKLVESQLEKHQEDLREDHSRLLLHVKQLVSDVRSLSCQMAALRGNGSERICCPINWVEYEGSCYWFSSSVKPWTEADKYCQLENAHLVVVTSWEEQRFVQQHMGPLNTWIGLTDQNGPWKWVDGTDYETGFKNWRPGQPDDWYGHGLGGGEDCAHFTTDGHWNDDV

Experiment [2] addresses T2, RHL-1 truncated at the carboxy terminus, product of 260 aa (rat, UniProt P02706 1-260, [35S]methionine label).
T2 sequence (looked up): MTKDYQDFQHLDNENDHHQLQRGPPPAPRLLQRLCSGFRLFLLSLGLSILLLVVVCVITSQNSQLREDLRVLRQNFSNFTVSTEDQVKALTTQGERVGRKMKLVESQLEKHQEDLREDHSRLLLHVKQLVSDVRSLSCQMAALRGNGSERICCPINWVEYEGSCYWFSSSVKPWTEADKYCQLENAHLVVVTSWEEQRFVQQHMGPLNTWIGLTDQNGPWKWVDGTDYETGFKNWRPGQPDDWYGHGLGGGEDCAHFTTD

Experiment [3] deals with T3, RHL-1 truncated at the carboxy terminus, product of 204 aa (rat, UniProt P02706 1-204, [35S]methionine label).
T3 sequence (looked up): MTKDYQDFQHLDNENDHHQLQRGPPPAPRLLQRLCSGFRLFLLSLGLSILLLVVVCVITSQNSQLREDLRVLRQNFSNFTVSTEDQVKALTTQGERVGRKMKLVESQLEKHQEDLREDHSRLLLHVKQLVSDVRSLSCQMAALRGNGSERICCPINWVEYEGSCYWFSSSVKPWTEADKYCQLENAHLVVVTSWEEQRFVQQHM

B1: rat hepatic lectin subunit RHL-2/3 (subunit of the rat asialoglycoprotein receptor), full length (natural protein, UniProt P08290 1-301, looked up)
chain: MEKDFQDIQQLDSEENDHQLIGDEEQGSHVQNLRTENPRWGGQPPSRPFPQRLCSKFRLSLLALAFNILLLVVICVVSSQSMQLQKEFWTLKETLSNFSTTTLMEFKALDSHGGSRNDNLTSWETILEKKQKDIKADHSTLLFHLKHFPLDLRTLTCQLAFFLSNGTECCPVNWVEFGGSCYWFSRDGLTWAEADQYCQMENAHLLVINSREEQEFVVKHRGAFHIWIGLTDKDGSWKWVDGTEYRSNFKNWAFTQPDNWQGHEEGGSEDCAEILSDGLWNDNFCQQVNRWACERKRDITY
modifications: [35S]methionine label; glycosylated by the microsomes
On to B1, for which the results for the “percent of RHL-2/3 coimmunoprecipitated, relative to full-length RHL-1” value in experiment [1], in experiment [2] and in experiment [3] were 100%, 100% and 88%, respectively.
